Assay [1] deals with FcγRII (CD32) on human CD4+ T cells (human (endogenous in CD4+ T cells of blood donors)) (UniProt P12318). Put plainly: flow cytometry on cells; activated purified CD4+ T cells incubated with aIgG (100 μg/ml) for 2 h at 37°C, washed three times, stained with biotinylated anti-human IgG Fc and streptavidin PerCP; percent of aIgG+CD4+ T cells. (In general: Flow cytometry measures light scatter and fluorescence of single cells or particles in a stream.)

Assay [2] shares this target.

Sequence of UniProt P12318 (P12318 34-317): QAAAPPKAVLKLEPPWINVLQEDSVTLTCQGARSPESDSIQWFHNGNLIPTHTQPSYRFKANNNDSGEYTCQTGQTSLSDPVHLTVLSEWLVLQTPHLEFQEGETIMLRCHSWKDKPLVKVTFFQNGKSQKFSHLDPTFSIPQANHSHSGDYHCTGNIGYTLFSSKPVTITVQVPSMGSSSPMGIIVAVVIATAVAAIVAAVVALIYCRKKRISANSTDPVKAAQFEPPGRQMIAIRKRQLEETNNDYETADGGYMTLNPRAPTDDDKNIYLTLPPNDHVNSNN

Substance “Human IgG (heat-aggregated IgG, used as a model of immune complexes; or immobilised on plastic) (ligand)” displayed a percent of aIgG+CD4+ T cells in assay [1] of 14.1%. In assay [2], this substance had an IFN-γ in the supernatant (ELISA) after cIgG, then suboptimal PHA for 5 d of 4950 pg/mL; an IL-5 in the supernatant (ELISA) after cIgG, then suboptimal PHA for 5 d of 77.9 pg/mL; an IL-10 in the supernatant (ELISA) after cIgG, then suboptimal PHA for 5 d of 143 pg/mL; a TNF-α in the supernatant (ELISA) after cIgG, then suboptimal PHA for 5 d of 59.1 pg/mL.

Values taken from paper PMC6284025.
